In publication PMC7550718 one finds increase of SHP1 phosphatase activity on DiFMUP with 0 to 3,000 nM SIRPα peptide (fold) and increase of phosphatase activity on DiFMUP with 0 to 3,000 nM SIRPα peptide (fold data, which are given here for one substance.

Test [1] addresses Full length wild type SHP1 (human) (UniProt P29350).
For test [2], the target named is SHP1 R136Q (human) (UniProt P29350).
Test [3] concerns the target SHP1 R30Q (human) (UniProt P29350).
Test [4] has as its target SHP1 R30Q R136Q (human) (UniProt P29350).

With “SIRPα di-phosphopeptide corresponding to residues 427 to 460 of human SIRPα (H2N-ITpYADLNLP-PEG8-HTEpYASIQTSK-NH2)”, the increase of SHP1 phosphatase activity on DiFMUP with 0 to 3,000 nM SIRPα peptide (fold) in test [1] came to 35 fold. Besides, the increase of phosphatase activity on DiFMUP with 0 to 3,000 nM SIRPα peptide (fold at 3 μM) in test [2] is 3.5 fold; in test [3] it was 1.8 fold; in test [4], 1.1 fold.
